According to US20220267464A1:
Read-outs that look alike come from different tables or passages of the source.

Columns and labels:
[1] = target: human 4-1BB on Jurkat-hu4-1BB-NFκB-luc2 reporter cells (human) (UniProt Q07011); test: cell-based or functional assay; parameters: AUC of activation curve, Jurkat-hu4-1BB-NFκB-luc2, no CEA+ cells / AUC of activation curve, Jurkat-hu4-1BB-NFκB-luc2 with CHO-k1-cyno CEACAM5 clone 8: unit not given beside the values
[2] = target: human CEACAM5 (carcinoembryonic antigen, CEA) on cells (human) (UniProt P06731); test: cell-based or functional assay; parameters: AUC of activation curve, Jurkat-hu4-1BB-NFκB-luc2, no CEA+ cells / AUC of activation curve, Jurkat-hu4-1BB-NFκB-luc2 with CHO-k1-cyno CEACAM5 clone 8: unit not given beside the values
[3] = target: cynomolgus monkey CEACAM5 on CHO-k1-cynoCEACAM5 clone 8 cells (cynomolgus monkey); test: cell-based or functional assay; parameters: AUC of activation curve, Jurkat-hu4-1BB-NFκB-luc2, no CEA+ cells / AUC of activation curve, Jurkat-hu4-1BB-NFκB-luc2 with CHO-k1-cyno CEACAM5 clone 8: unit not given beside the values
[4] = target: human CEACAM5 (carcinoembryonic antigen, CEA) on cells (human) (UniProt P06731); test: cell-based or functional assay
[5] = target: human CEACAM5 (carcinoembryonic antigen, CEA) on cells (human) (UniProt P06731); test: flow cytometry, CHO-k1-huCEACAM5 clone 13; parameters: unit not given beside the values
[6] = target: human CEACAM5 (carcinoembryonic antigen, CEA) on cells (human) (UniProt P06731); test: flow cytometry, CHO-k1-huCEACAM5 clone 11; parameters: unit not given beside the values
[7] = target: human CEACAM5 (carcinoembryonic antigen, CEA) on cells (human) (UniProt P06731); test: flow cytometry, CHO-k1-huCEACAM5 clone 12; parameters: unit not given beside the values
[8] = target: cynomolgus monkey CEACAM5 on CHO-k1-cynoCEACAM5 clone 8 cells (cynomolgus monkey); test: flow cytometry, CHO-k1-cynoCEACAM5 clone 8; parameters: unit not given beside the values
[9] = target: cynomolgus monkey CEACAM5 on CHO-k1-cynoCEACAM5 clone 8 cells (cynomolgus monkey); test: flow cytometry, CHO-k1-cynoCEACAM5 clone 8; parameters: unit not given beside the values; remark: listed apart in the source
[10] = target: human CEACAM5 (carcinoembryonic antigen, CEA) on cells (human) (UniProt P06731); test: flow cytometry, CHO-k1-huCEACAM5 clone 12; parameters: unit not given beside the values; remark: listed apart in the source
[11] = target: human CEACAM5 (carcinoembryonic antigen, CEA) on cells (human) (UniProt P06731); test: flow cytometry, CHO-k1-huCEACAM5 clone 17; parameters: unit not given beside the values
[12] = target: human CEACAM5 (carcinoembryonic antigen, CEA) on cells (human) (UniProt P06731); test: flow cytometry, CHO-k1-huCEACAM5 clone 11; parameters: unit not given beside the values; remark: listed apart in the source
[13] = target: human CEACAM5 (carcinoembryonic antigen, CEA) on cells (human) (UniProt P06731); test: flow cytometry, MKN45 cells; parameters: unit not given beside the values

human CEACAM5 (carcinoembryonic antigen, CEA) on cells (human), sequence (P06731 35-685 E398K limits assumed): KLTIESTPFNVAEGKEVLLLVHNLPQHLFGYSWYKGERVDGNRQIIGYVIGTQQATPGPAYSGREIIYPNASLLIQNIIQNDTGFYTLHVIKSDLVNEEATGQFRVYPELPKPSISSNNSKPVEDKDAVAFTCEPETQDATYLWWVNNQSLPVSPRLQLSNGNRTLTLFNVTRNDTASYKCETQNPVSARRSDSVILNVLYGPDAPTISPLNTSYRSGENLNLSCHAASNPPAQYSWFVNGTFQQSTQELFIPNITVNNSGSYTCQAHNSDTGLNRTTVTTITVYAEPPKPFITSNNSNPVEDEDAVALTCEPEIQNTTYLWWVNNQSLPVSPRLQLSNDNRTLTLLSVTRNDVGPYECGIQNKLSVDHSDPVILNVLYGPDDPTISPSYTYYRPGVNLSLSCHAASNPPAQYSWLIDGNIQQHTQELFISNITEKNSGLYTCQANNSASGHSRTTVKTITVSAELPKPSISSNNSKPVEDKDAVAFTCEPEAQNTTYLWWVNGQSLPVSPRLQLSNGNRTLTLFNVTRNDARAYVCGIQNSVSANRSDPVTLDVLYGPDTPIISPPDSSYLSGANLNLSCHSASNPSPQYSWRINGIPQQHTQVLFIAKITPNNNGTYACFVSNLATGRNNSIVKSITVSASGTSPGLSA
human 4-1BB on Jurkat-hu4-1BB-NFκB-luc2 reporter cells (human), sequence (Q07011 24-255 limits assumed): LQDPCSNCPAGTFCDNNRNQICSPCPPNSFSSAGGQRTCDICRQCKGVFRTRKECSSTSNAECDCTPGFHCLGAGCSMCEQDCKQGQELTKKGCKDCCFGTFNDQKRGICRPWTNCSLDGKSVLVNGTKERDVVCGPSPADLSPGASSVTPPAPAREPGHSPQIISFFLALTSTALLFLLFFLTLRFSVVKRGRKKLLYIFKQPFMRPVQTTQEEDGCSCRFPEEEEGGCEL

Row | AUC of activation curve, Jurkat-hu4-1BB-NFκB-luc2, no CEA+ cells [1] | AUC of activation curve, Jurkat-hu4-1BB-NFκB-luc2 with CHO-k1-human CEACAM5 clone 11 [2] | AUC of activation curve, Jurkat-hu4-1BB-NFκB-luc2 with CHO-k1-human CEACAM5 clone 12 [2] | AUC of activation curve, Jurkat-hu4-1BB-NFκB-luc2 with CHO-k1-cyno CEACAM5 clone 8 [3] | EC50, NFκB-luciferase in Jurkat-hu4-1BB-NFκB-luc2 with CHO-k1-human CEACAM5 clone 11 [4] [pM] | EC50, NFκB-luciferase in Jurkat-hu4-1BB-NFκB-luc2 with CHO-k1-human CEACAM5 clone 12 [4] [pM] | Substance | other results
1 | 2270 | – | – | – | – | – | CEA (MEDI-565)-4-1BBL (Fc fusion) | –
2 | 2810 | 162000 | 164000 | 3970 | 50 | 30 | CEA(sm9b)-4-1BBL (Fc fusion) | –
3 | 1980 | 150000 | 146000 | 2820 | 90 | 70 | CEA(sm9b)-4-1BBL single chain (Fc fusion) | –
4 | 2930 | 8640 | 6640 | 4710 | – | – | DP47-4-1BBL (Fc fusion) | AUC [5]: 752; AUC [6]: 1300; AUC [7]: 140; AUC [8]: 11; AUC [9]: 520; AUC [10]: 700; AUC [11]: 430; AUC [12]: 148
5 | – | – | – | – | – | – | P1AD5108-002 DP47 huIgG1 PG LALA (Isotype control) (antibody) | AUC [13]: 420
